{"source": "patent US20190276549A1", "key": {"C1q (human) [1]": {"molecular_target": "C1q (human) (UniProt P02745)", "sequence (P02745 23-245 limits assumed, chain 1 of 3)": "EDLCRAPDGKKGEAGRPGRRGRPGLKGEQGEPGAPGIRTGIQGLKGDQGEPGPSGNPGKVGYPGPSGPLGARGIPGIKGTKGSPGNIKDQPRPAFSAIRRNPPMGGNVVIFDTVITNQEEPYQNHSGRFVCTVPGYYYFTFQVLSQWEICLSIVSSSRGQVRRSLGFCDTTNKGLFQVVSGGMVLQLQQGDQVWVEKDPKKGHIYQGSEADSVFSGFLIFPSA", "sequence (P02746 28-253 limits assumed, chain 2 of 3, further chain)": "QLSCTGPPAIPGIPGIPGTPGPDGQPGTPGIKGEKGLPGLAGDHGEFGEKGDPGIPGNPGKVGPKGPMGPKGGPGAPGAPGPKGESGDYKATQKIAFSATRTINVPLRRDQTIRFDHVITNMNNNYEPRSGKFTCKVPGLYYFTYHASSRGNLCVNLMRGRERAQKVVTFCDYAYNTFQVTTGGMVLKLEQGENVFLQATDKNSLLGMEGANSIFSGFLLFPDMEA", "sequence (P02747 29-245 limits assumed, chain 3 of 3, further chain)": "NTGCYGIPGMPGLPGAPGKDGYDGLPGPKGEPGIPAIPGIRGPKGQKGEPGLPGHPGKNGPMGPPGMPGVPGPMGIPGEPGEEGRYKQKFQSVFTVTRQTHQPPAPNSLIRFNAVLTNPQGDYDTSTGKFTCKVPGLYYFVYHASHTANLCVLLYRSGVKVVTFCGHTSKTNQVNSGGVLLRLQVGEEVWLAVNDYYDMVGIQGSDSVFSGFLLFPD", "assay": "cell-based or functional assay"}, "C1q (human) [2]": {"molecular_target": "C1q (human) (UniProt P02745)", "assay": "cell-based or functional assay", "remark": "listed apart in the source"}, "CD52 (human) [3]": {"molecular_target": "CD52 (human) (UniProt P31358)", "assay": "QIFIKIT indirect immunofluorescence, flow cytometry, 10 µg/mL antibody, U-698-M cells"}, "CD52 (human) [4]": {"molecular_target": "CD52 (human) (UniProt P31358)", "assay": "QIFIKIT indirect immunofluorescence, flow cytometry, 10 µg/mL antibody, Wien 133 cells"}, "CD52 (human) [5]": {"molecular_target": "CD52 (human) (UniProt P31358)", "assay": "QIFIKIT indirect immunofluorescence, flow cytometry, 10 µg/mL antibody, Daudi cells"}, "CD52 (human) [6]": {"molecular_target": "CD52 (human) (UniProt P31358)", "assay": "QIFIKIT indirect immunofluorescence, flow cytometry, 10 µg/mL antibody, Ramos cells"}, "CD52 (human) [7]": {"molecular_target": "CD52 (human) (UniProt P31358)", "assay": "QIFIKIT indirect immunofluorescence, flow cytometry, 10 µg/mL antibody, U-266B1 cells"}, "CD52 (human) [8]": {"molecular_target": "CD52 (human) (UniProt P31358)", "assay": "QIFIKIT indirect immunofluorescence, flow cytometry, 10 µg/mL antibody, Raji cells"}, "CD52 (human) [9]": {"molecular_target": "CD52 (human) (UniProt P31358)", "assay": "QIFIKIT indirect immunofluorescence, flow cytometry, 10 µg/mL antibody, REH cells"}}, "note": "Like-named read-outs stand apart in the source and are kept apart here."}
{"substance": "IgG1-005-AA-E345R (antibody)", "values": [{"measurement": "CDC on Daudi cells, 20% NHS: EC50", "setting": "C1q (human) [1]", "result": 0.14, "unit": "µg/mL"}, {"measurement": "CDC on Daudi cells, 20% NHS: maximal kill", "setting": "C1q (human) [1]", "result": 74.3, "unit": "%"}]}
{"substance": "IgG1-005-AA-E430G (antibody)", "values": [{"measurement": "CDC on Daudi cells, 20% NHS: EC50", "setting": "C1q (human) [1]", "result": 0.06, "unit": "µg/mL"}]}
{"substance": "IgG1-005-D270R/E430G (antibody)", "values": [{"measurement": "CDC on Daudi cells, 20% NHS: EC50", "setting": "C1q (human) [2]", "result": 0.15, "unit": "µg/mL"}]}
{"substance": "IgG1-005-E345R (antibody)", "values": [{"measurement": "CDC on Daudi cells, 20% NHS: EC50", "setting": "C1q (human) [1]", "result": 0.01, "unit": "µg/mL"}]}
{"substance": "IgG1-005-E430G (antibody)", "values": [{"measurement": "CDC on Daudi cells, 20% NHS: EC50", "setting": "C1q (human) [2]", "result": 0.005, "unit": "µg/mL"}, {"measurement": "CDC on Daudi cells, 20% NHS: EC50", "setting": "C1q (human) [1]", "result": 0.01, "unit": "µg/mL"}]}
{"substance": "IgG1-Campath (antibody)", "values": [{"measurement": "antibody binding capacity (Molecules/cell) (molecules/cell)", "setting": "CD52 (human) [3]", "result": 93700}, {"measurement": "antibody binding capacity (Molecules/cell) (molecules/cell)", "setting": "CD52 (human) [4]", "result": 332000}, {"measurement": "antibody binding capacity (Molecules/cell) (molecules/cell)", "setting": "CD52 (human) [5]", "result": 7280}, {"measurement": "antibody binding capacity (Molecules/cell) (molecules/cell)", "setting": "CD52 (human) [6]", "result": 179000}, {"measurement": "antibody binding capacity (Molecules/cell) (molecules/cell)", "setting": "CD52 (human) [7]", "result": "1.46e+06"}, {"measurement": "antibody binding capacity (Molecules/cell) (molecules/cell)", "setting": "CD52 (human) [8]", "result": 85500}, {"measurement": "antibody binding capacity (Molecules/cell) (molecules/cell)", "setting": "CD52 (human) [9]", "result": 135000}]}
{"substance": "IgG1-Campath variant E345R with the K322E mutation (antibody)", "values": [{"measurement": "CDC on Wien 133 cells, 20% NHS: area under the dose response curve, IgG1-Campath = 100%", "setting": "C1q (human) [2]", "result": 60, "unit": "%"}]}
{"substance": "IgG1-Campath-E345K (antibody)", "values": [{"measurement": "CDC on Wien 133 cells, 20% NHS: area under the dose response curve relative to IgG1-Campath", "setting": "C1q (human) [2]", "result": 2.4, "unit": "fold"}, {"measurement": "CDC on Wien 133 cells, 20% NHS: area under the dose response curve, IgG1-Campath = 100%", "setting": "C1q (human) [2]", "result": 240, "unit": "%"}]}
